{
  "source": "patent US20230091653",
  "key": {"[1]": {"tested_on": "h00-37 (non-binding control antibody h00 conjugated with compound 37, mp-val-cit-PABC-MMAE)"}, "[2]": {"tested_on": "h00-5 (non-binding control antibody h00 conjugated with compound 5, mp-D-Leu-Ala-Glu-PABC-MMAE)"}, "[3]": {"tested_on": "h00-7 (non-binding control antibody h00 conjugated with compound 7, mp-Leu-Ala-Glu-PABC-MMAE)"}},
  "data": [
    {"substance": "Cathepsin B", "values": [
      {"measurement": "percentage of drug cleaved from the heavy chain (3 h at 37 C, pH 4.5, QToF mass spectrometry)", "setting": "[1]", "result": "percentage of drug cleaved from the heavy chain of non-targeted ADCs 5 and 7 in vitro by Cathepsin B is similar to that found for non-targeted ADC 37"},
      {"measurement": "percentage of drug cleaved from the heavy chain (3 h at 37 C, pH 4.5, QToF mass spectrometry)", "setting": "[2]", "result": "percentage of drug cleaved from the heavy chain of non-targeted ADCs 5 and 7 in vitro by Cathepsin B is similar to that found for non-targeted ADC 37"},
      {"measurement": "percentage of drug cleaved from the heavy chain (3 h at 37 C, pH 4.5, QToF mass spectrometry)", "setting": "[3]", "result": "percentage of drug cleaved from the heavy chain of non-targeted ADCs 5 and 7 in vitro by Cathepsin B is similar to that found for non-targeted ADC 37"}
    ]},
    {"substance": "neutrophil elastase", "values": [
      {"measurement": "percentage of drug cleaved from the heavy chain (3 h at 37 C, QToF mass spectrometry)", "setting": "[1]", "result": "percentage of drug cleaved from the heavy chain of non-targeted ADC 5 in vitro by neutrophil elastase is lower than that found for non-targeted ADC 37"},
      {"measurement": "percentage of drug cleaved from the heavy chain (3 h at 37 C, QToF mass spectrometry)", "setting": "[2]", "result": "no proteolosis of h00-5 by neutrophil elastase was observed"},
      {"measurement": "percentage of drug cleaved from the heavy chain (3 h at 37 C, QToF mass spectrometry)", "setting": "[3]", "result": "the h00-5 conjugate ... has its heavy chain cleaved by neutrophil elastase to a significantly lower extent than h00-7"}
    ]}
  ]
}
